Patent US10800813
Numbered stars: 1 amine (or outer) side, 2 acyl side, 3 side chain; on linkers, the order of the positions; unused ones are H or OH. Bridge positions count the residues as written; N and C are the ends. Ends that are not written are not given here. TBMB = c1c(C[*:1])cc(C[*:3])cc1C[*:2]

Target: Human factor XIa (human), P03951
Assay: enzyme inhibition assay
Conditions: remark: other sources report otherwise

## ACTYPYKCLHQNLCA (linker 2-8-14 via TBMB) [2A10]
  Ki: 75 µM
